Source: patent publication US20050202025A1

Target: FbsA on cells of S. agalactiae O90R (Streptococcus agalactiae)
Assay: increasing fibrinogen on S. agalactiae O90R cells immobilised on microtiter wells; apparent KD from the concentration for half maximal binding

**Q.** For “human fibrinogen (from UniProt P02671 20-629; P02675 31-491; P02679 27-437) (ligand)”, which Kd is on record?
**A.** Its Kd is 25 nM.
